Numbering of substitutions follows the chain as printed. Names and notes keep the numbering of the source.
B1: CD3B2085 (scFv)
scFv: QVQLVQSGAEVKKPGSSVKVSCKASGYTFTRSTMHWVRQAPGQGLEWMGYINPSSAYTNYAQKFQGRVTLTADKSTSTAYMELSSLRSEDTAVYYCASPQVHYDYNGFPYWGQGTLVTVSSGGSEGKSSGSGSESKSTGGSEIVLTQSPATLSASPGERVTLSCSASSSVSYMNWYQQKPGTAPRRWIYDSSKLASGVPARFSGSGSGRDYTLTISSLEPEDFAVYYCQQWSRNPPTFGGGTKVEIK
B2: CD3B2079 (scFv)
scFv: B1 scFv with M48I, W187L
B3: CD3B2080 (scFv)
scFv: B1 scFv with M48I, T182Q, A183S
B4: CD3B2086 (scFv)
scFv: B1 scFv with A183S, W187L
B5: CD3B2069 (scFv)
scFv: B1 scFv with A61N
B6: CD3B2087 (scFv)
scFv: B1 scFv with W187L
B7: CD3B2071 (scFv)
scFv: B1 scFv with A61N, W187L
B8: CD3B2077 (scFv)
scFv: B1 scFv with M48I
B9: CD3B2073 (scFv)
scFv: B1 scFv with A61N, T182Q
B10: CD3B2072 (scFv)
scFv: B1 scFv with A61N, T182Q, A183S
B11: CD3B2078 (scFv)
scFv: B1 scFv with M48I, A183S, W187L
B12: CD3B2088 (scFv)
scFv: B1 scFv with T182Q, A183S
B13: CD3B2081 (scFv)
scFv: B1 scFv with M48I, T182Q
B14: CD3B2082 (scFv)
scFv: B1 scFv with A183S
B15: CD3B2030 N106I (scFv)
scFv: B1 scFv with R38K, M48I, A61N, N106I, T182Q
B16: CD3B2030 N106P (scFv)
scFv: B1 scFv with R38K, M48I, A61N, N106P, T182Q
B17: CD3B2089 G107F (scFv)
scFv: B1 scFv with G107F, T182Q
B18: CD3B2089 N106P (scFv)
scFv: B1 scFv with N106P, T182Q
B19: CD3B2089 G107Y (scFv)
scFv: B1 scFv with G107Y, T182Q
B20: CD3B2089 N106L (scFv)
scFv: B1 scFv with N106L, T182Q
B21: CD3B2089 N106G (scFv)
scFv: B1 scFv with N106G, T182Q
B22: CD3B2089 G107V (scFv)
scFv: B1 scFv with G107V, T182Q

Each binder was assayed against T1, TRCW5 antigen (CD3δε-Fc-Avi) (biotinylated (site not stated)) (assay: ELISA after heat).
T1 construct: also called recombinant CD3
T1 sequence (chain, as listed by the source mutant limits assumed): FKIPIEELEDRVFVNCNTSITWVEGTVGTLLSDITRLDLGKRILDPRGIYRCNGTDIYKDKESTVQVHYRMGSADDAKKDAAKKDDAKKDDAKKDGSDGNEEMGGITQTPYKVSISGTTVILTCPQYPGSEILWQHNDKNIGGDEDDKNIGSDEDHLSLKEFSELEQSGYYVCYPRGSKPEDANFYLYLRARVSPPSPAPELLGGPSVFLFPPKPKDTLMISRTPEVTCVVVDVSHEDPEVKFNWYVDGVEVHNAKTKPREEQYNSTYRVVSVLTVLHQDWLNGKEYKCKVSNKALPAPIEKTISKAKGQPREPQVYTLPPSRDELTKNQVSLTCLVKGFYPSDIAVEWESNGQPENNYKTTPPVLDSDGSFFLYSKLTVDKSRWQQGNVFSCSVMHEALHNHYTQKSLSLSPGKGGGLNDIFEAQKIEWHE

Point of comparison: B14, “% Retained 55° C.” value 114%. Against it:
- B1 — lower, 112%
- B2 — lower, 111%
- B3 — lower, 109%
- B4 — lower, 104%
- B5 — the same, 114%
- B6 — lower, 104%
- B7 — lower, 103%
- B8 — lower, 106%
- B9 — lower, 113%
- B10 — higher, 117%
- B11 — lower, 107%
- B12 — higher, 116%
- B13 — lower, 112%

Point of comparison: B7, “% Retained 60° C.” value 88%. Against it:
- B1 — higher, 117%
- B2 — higher, 92%
- B3 — higher, 108%
- B4 — higher, 96%
- B5 — higher, 109%
- B6 — higher, 94%
- B8 — higher, 107%
- B9 — higher, 110%
- B10 — higher, 111%
- B11 — the same, 88%
- B12 — higher, 114%
- B13 — higher, 114%
- B14 — higher, 116%

Point of comparison: B6, “% Retained 65° C.” value 5%. Against it:
- B1 — higher, 18%
- B2 — lower, 2%
- B3 — higher, 17%
- B4 — the same, 5%
- B5 — higher, 17%
- B7 — lower, 4%
- B8 — higher, 22%
- B9 — higher, 27%
- B10 — higher, 17%
- B11 — lower, 2%
- B12 — higher, 26%
- B13 — higher, 38%
- B14 — higher, 9%

The binders below were run against T1, TRCW5 antigen (CD3δε-Fc-Avi) (assay: ELISA).

Point of comparison: B18, EC50 ~27.4 nM. Against it:
- B15 — 2.1-fold lower, ~13.3 nM
- B16 — within 1.5-fold, ~24 nM
- B17 — 1.9-fold lower, 14.4 nM
- B19 — within 1.5-fold, 21.4 nM
- B20 — within 1.5-fold, 30.8 nM
- B21 — 16-fold higher, ~429 nM
- B22 — 1.6-fold lower, 17.4 nM

The binders below were run against T2, CD3 on primary human pan T cells (human, UniProt P07766 23-207) (assay: flow cytometry, pan T-cells).
T2 construct: on cells it stands in the TCR/CD3 complex; also called Pan T-cells (CD3-positive); endogenous CD3
Description: ELISA assays for binding to recombinant CD3 (TRCW5, SEQ ID NO: 39) were performed as above. Cell binding was performed using primary human T cell and Jurkat cells by flow cytometry. Briefly, E. coli expressed anti CD3 ScFv supernatants, either at room temperature, or 55° C., 60° C. or 65° C. heat treated samples.
Pan T-cells (CD3-positive) and Jurkat-CD3-negative cells were prepared by staining Jurkat-CD3-negative cells with CFSE while keeping pan T-cells unstained. Jurkat-CD3-negative cell suspensions were resuspended at 20 million cells per each 50 mL conical tube. Cells were harvested by centrifugation at 400×g for 5 minutes and resuspended in DPBS followed by washing 2× in DPBS. Cells were stained with 1:25,000 dilution for a final dye concentration of 0.02 uM CFSE (2 uL of staining solution to 50 mL of cell suspension). Cells were incubated for 10 minutes at room temperature and centrifuged for 5 minutes at 400×g. After removal of supernatant, 3 mL of HI-FBS were added to the cell pellet, mixed and centrifuged for 5 min at 400×g. Supernatant was removed and cells were resuspended in BD stain buffer at 2×10\hat{ }6 cells/mL and incubated on ice or 4 C protected from light. Human pan T cells were thawed at 37 C and transferred gently into a conical tube containing 15 mL of warm or RT culture media (RPMI+10% FBS). […] Cells were harvested by centrifugation at 400×g for 5 min and resuspended in culture media (RPMI+10% HI-FBS). Pan T-cells (without staining) were prepared at 2×10\hat{ }6 cells/mL in flow staining buffer. Equal volumes of CFSE stained Jurkat-CD3-negative cells and unstained T-cells (CD3-positive) cells were mixed and plated 50 uL/well into assay plates. 50 uL/well neat bacterial supernatant samples and control sample (CD3W36 ScFv) were added to each well and plates were incubated 1 hr at 4 C or. Cells were harvested by centrifugation at 400×g for 4 min and 150 uL staining buffer were added to all wells, followed by centrifugation at 400×g for 4 min to pellet cells. To each well, 150 uL staining buffer were added followed by centrifugation at 400×g for 4 minutes to pellet cells.

T2 sequence (P07766 23-207 limits assumed): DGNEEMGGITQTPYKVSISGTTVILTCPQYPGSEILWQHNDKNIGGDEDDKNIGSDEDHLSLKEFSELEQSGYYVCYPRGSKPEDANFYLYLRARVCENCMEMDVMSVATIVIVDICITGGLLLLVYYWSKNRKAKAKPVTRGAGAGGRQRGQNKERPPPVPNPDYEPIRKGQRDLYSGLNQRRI

Point of comparison: B3, “% Binding retained on T-cells, 55° C.” value 1.07 fraction. Against it:
- B1 — lower, 1.01 fraction
- B2 — lower, 1.06 fraction
- B4 — lower, 1.01 fraction
- B5 — higher, 1.08 fraction
- B6 — lower, 1.02 fraction
- B7 — lower, 1.01 fraction
- B8 — lower, 1.03 fraction
- B9 — lower, 0.993 fraction
- B10 — lower, 0.872 fraction
- B11 — lower, 1.01 fraction
- B12 — lower, 1.01 fraction
- B13 — lower, 1.04 fraction
- B14 — higher, 1.11 fraction

Point of comparison: B5, “% Binding retained on T-cells, 60° C.” value 1.48 fraction. Against it:
- B1 — lower, 0.411 fraction
- B2 — lower, 0.979 fraction
- B3 — lower, 1.13 fraction
- B4 — lower, 1.12 fraction
- B6 — lower, 0.964 fraction
- B7 — lower, 0.899 fraction
- B8 — lower, 1.1 fraction
- B9 — lower, 1.1 fraction
- B10 — lower, 1.27 fraction
- B11 — lower, 0.762 fraction
- B12 — lower, 0.461 fraction
- B13 — lower, 1.2 fraction
- B14 — lower, 0.682 fraction

Point of comparison: B1, “% Binding retained on T-cells, 65° C.” value 0.385 fraction. Against it:
- B2 — lower, 0.116 fraction
- B3 — lower, 0.0573 fraction
- B4 — lower, 0.0404 fraction
- B5 — lower, 0.11 fraction
- B6 — lower, 0.105 fraction
- B7 — lower, 0.12 fraction
- B8 — lower, 0.307 fraction
- B9 — lower, 0.348 fraction
- B10 — lower, 0.0933 fraction
- B11 — lower, 0.0574 fraction
- B12 — lower, 0.258 fraction
- B13 — lower, 0.102 fraction
- B14 — lower, 0.276 fraction

Point of comparison: B8, “% Binding retained on T-cells, RT” value 1 fraction. Against it:
- B1 — the same, 1 fraction
- B2 — the same, 1 fraction
- B3 — the same, 1 fraction
- B4 — the same, 1 fraction
- B5 — the same, 1 fraction
- B6 — the same, 1 fraction
- B7 — the same, 1 fraction
- B9 — the same, 1 fraction
- B10 — the same, 1 fraction
- B11 — the same, 1 fraction
- B12 — the same, 1 fraction
- B13 — the same, 1 fraction
- B14 — the same, 1 fraction

From patent US20250145711A1 (Janssen / Centocor, published 2025)
